Patent US5856155, “Compounds and related methods for modulating potassium ion channels and assays for such compounds” (The Johns Hopkins University School Of Medicine, dated 1999)

T1: NH2-terminal domain of DRK1 (a.a. 1-182) (Kv2.1) (rat, UniProt P15387)
T1 sequence: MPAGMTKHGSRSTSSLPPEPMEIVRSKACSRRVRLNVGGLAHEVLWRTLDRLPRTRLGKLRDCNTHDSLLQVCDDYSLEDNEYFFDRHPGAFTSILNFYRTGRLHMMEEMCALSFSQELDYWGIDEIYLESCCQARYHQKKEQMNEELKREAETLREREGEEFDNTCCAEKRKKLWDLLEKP

T2: NH2-terminal domain of NGK2b (a.a. 1-180) (Kv3.1) (rat, UniProt P25122)
T2 sequence: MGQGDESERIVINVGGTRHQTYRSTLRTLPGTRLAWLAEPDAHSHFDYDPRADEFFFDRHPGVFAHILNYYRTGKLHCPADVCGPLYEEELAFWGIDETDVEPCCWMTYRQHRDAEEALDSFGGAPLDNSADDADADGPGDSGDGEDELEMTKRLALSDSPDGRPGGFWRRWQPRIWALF

T3: NH2-terminal domain of rshal1 (a.a. 1-228) (Kv4.2) (rat, UniProt Q63881)
T3 sequence: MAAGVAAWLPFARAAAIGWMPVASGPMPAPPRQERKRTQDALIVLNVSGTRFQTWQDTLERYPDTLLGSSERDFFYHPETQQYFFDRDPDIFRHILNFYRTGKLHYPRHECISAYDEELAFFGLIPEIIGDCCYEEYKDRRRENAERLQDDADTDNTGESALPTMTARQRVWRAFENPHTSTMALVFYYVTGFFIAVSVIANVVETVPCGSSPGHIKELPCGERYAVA

T4: NH2-terminal domain of Drosophila Shaw2 (Kv3 subfamily) (Drosophila, UniProt P17972)
T4 sequence: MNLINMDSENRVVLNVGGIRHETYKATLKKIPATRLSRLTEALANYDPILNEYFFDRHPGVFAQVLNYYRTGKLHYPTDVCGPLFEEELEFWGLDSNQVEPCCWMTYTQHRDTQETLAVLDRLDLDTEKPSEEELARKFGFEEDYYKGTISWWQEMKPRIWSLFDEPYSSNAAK

T5: NH2-terminal domain of Drosophila Shal2 (Kv4 subfamily) (Drosophila, UniProt P17971-1)
T5 sequence: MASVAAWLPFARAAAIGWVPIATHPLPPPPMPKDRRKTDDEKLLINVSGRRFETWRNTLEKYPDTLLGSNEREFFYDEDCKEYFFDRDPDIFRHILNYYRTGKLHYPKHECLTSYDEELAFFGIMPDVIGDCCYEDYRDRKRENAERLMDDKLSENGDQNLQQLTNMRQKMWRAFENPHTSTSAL

B1: Kvβ1 (a.a. 1-401) (other)
chain: MQVSIACTEHNLKSRNGEDRLLSKQSSTAPNVVNAARAKFRTVAIIARSLGTFTPQHHISLKESTAKQTGMKYRNLGKSGLRVSCLGLGTWVTFGGQISDEVAERLMTIAYESGVNLFDTAEVYAAGKAEVILGSIIKKKGWRRSSLVITTKLYWGGKAETERGLSRKHIIEGLKGSLQRLQLEYVDVVFANRPDSNTPMEEIVRAMTHVINQGMAMYWGTSRWSAMEIMEAYSVARQFNMIPPVCEQAEYHLFQREKVEVQLPELYHKIGVGAMTWSPLACGIISGKYGNGVPESSRASLKCYQWLKERIVSEEGRKQQNKLKDLSPIAERLGCTLPQLAVAWCLRNEGVSSVLLGSSTPEQLIENLGAIQVLPKMTSHVVNEIDNILRNKPYSKKDYRS
B2: Kvβ2 (a.a. 1-367) (other)
chain: MYPESTTGSPARLSLRQTGSPGMIYSTRYGSPKRQLQFYRNLGKSGLRVSCLGLGTWVTFGGQITDEMAEHLMTLAYDNGINLFDTAEVYAAGKAEVVLGNIIKKKGWRRSSLVITTKIFWGGKAETERGLSRKHIIEGLKASLERLQLEYVDVVFANRPDPNTPMEEIVRAMTHVINQGMAMYWGTSRWSSMEIMEAYSVARQFNLIPPICEQAEYHMFQREKVEVQLPELFHKIGVGAMTWSPLACGIVSGKYDSGIPPYSRASLKGYQWLKDKILSEEGRRQQAKLKELQAIAERLGCTLPQLAIAWCLRNEGVSSVLLGASNAEQLMENIGAIQVLPKLSSSIVHEIDSILGNKPYSKKDYRS
B3: ΔKvβ2(39-367) (other)
chain: YRNLGKSGLRVSCLGLGTWVTFGGQITDEMAEHLMTLAYDNGINLFDTAEVYAAGKAEVVLGNIIKKKGWRRSSLVITTKIFWGGKAETERGLSRKHIIEGLKASLERLQLEYVDVVFANRPDPNTPMEEIVRAMTHVINQGMAMYWGTSRWSSMEIMEAYSVARQFNLIPPICEQAEYHMFQREKVEVQLPELFHKIGVGAMTWSPLACGIVSGKYDSGIPPYSRASLKGYQWLKDKILSEEGRRQQAKLKELQAIAERLGCTLPQLAIAWCLRNEGVSSVLLGASNAEQLMENIGAIQVLPKLSSSIVHEIDSILGNKPYSKKDYRS
B4: ΔKvβ2(39-316) (other)
chain: YRNLGKSGLRVSCLGLGTWVTFGGQITDEMAEHLMTLAYDNGINLFDTAEVYAAGKAEVVLGNIIKKKGWRRSSLVITTKIFWGGKAETERGLSRKHIIEGLKASLERLQLEYVDVVFANRPDPNTPMEEIVRAMTHVINQGMAMYWGTSRWSSMEIMEAYSVARQFNLIPPICEQAEYHMFQREKVEVQLPELFHKIGVGAMTWSPLACGIVSGKYDSGIPPYSRASLKGYQWLKDKILSEEGRRQQAKLKELQAIAERLGCTLPQLAIAWCLRNEG

Experiments:
[1] = molecular target: T6, COOH-terminal domain of RCK4 (CRCK4, a.a. 566-651) (rat, UniProt P15385); experiment: yeast two-hybrid, growth on medium lacking histidine
From the text: (§1) FIG. 6B depicts the results of a yeast two-hybrid assay wherein YGH1 yeast cells were transformed by different pairwise combinations of the two-hybrid constructs that express either fusion proteins of the DNA binding domain of GAL4 or the transcription activation domain of GAL4. […] In the middle panel, the transformants carrying the two different fusion proteins were first selected by dextrose synthetic drop-out medium with no supplement of leucine and tryptophan (SD, −leu, −trp, +his) to ensure that in different combinations the transformants have both plasmids. In the lower panel, identical numbers of cells in each combination were also dotted on the same medium without histidine (SD, −leu, −trp, −his). The transformants were allowed to grow at 30° C. for 65 hours.
(§2) In the case of Kvβ1, its subfamily-specific association with the NH_2-terminal domains of Kv1 α-subunits is essential for the Kvβ1-mediated inactivation. […] What is not known, however, is whether the failure to detect the Kv2.1-Kvβ2 complex is due to the incompatibility of these two subunits to interact or their limited overlapping expression in vivo. To test the specificity of the Kvβ2-α (interaction, pairwise combinations of Kvβ2 and the NH_2-terminal domains of eight different α-subunits were analyzed in the yeast two hybrid system. The eight α-subunits included were: ShB (Kamb et al., *Cell*, 50, 405–413 (1987); Pongs et al., *EMBO J.*, 7, (1988); Tempel et al., *Science*, 237, 770–775, (1987), Shabll, Shaw2, and Shal2 from Drosophila (Butler et al., *Nucleic Acids Res.*, 18, 2173–2174 (1990); Kv1.4 (or RCK4) (Stuhmer et al., *EMBO J.*, 8, 3235–3244 (1989), Kv2.1 (or DPK1) (Frech et al., *Nature*, 340, 642–645 (1989), Kv3.1 (or NGK2b) (Yokoyama et al., *FEBS Lett.*, 259, 37–42 (1989), and Kv4.2(or rShal1) (Baldwin et al., *Neuron*, 7, 471–483 (1991); Roberds et al., *Proc. Natl. Acad. Sci. USA*, 88, 1798–1802 (1991)) from rat.

[2] = molecular target: T1, NH2-terminal domain of DRK1 (a.a. …); experiment: as above
From the text: as §1, §2

[3] = molecular target: T2, NH2-terminal domain of NGK2b (a.a. …); experiment: as above
From the text: as §1, §2

[4] = molecular target: T3, NH2-terminal domain of rshal1 (a.a. …); experiment: as above
From the text: as §1, §2

[5] = molecular target: GAL4 DNA binding (DB) domain alone (Saccharomyces cerevisiae (strain ATCC …, UniProt P04386)); experiment: yeast two-hybrid control, growth on medium lacking histidine
From the text: (§3) Figure 2: FIG. 2 depicts the results of a yeast two-hybrid assay wherein YGH1 yeast cells were transformed by different pairwise combinations of the two-hybrid constructs that express either fusion proteins of the DNA binding domain of GAL4 or the transcription activation domain of GAL4. […] In the middle panel, the transformants carrying the two different fusion proteins were first selected by dextrose synthetic drop-out medium with no supplement of leucine and tryptophan (SD, −leu, −trp, +his) to ensure that in different combinations the transformants have both plasmids. In the lower panel, the identical number of cells in each combination were also dotted on the same medium without histidine (SD, −leu, −trp, −his). The transformants were allowed to grow at 30° C. for 65 hours.
(§4) Cytoplasmic NH_2— and COOH— terminal domains of different α-subunits were subcloned and expressed as fusion proteins of the GAL4 DNA binding (DB) domain. Kvβ1 was expressed as a fusion protein of either the GAL4 DNA binding (DB) domain or transcription activation (TA) domain. […] When Kvβ1 was coexpressed with the NH_2-terminal domain of RCK4 (NRCK4) (a.a. 1–306; an α-subunit sensitive to Kvβ1-mediated inactivation), the yeast transformants grew on a selective medium (FIG. 2, No. 1).

[6] = molecular target: T7, GAL4 transcription activation (TA) domain alone (Saccharomyces cerevisiae (strain ATCC …, UniProt P04386)); experiment: as above
From the text: as §3, §4

[7] = molecular target: T4, NH2-terminal domain of Drosophila Shaw2 …; experiment: yeast two-hybrid, growth on medium lacking histidine
From the text: as §1, §2

[8] = molecular target: T5, NH2-terminal domain of Drosophila Shal2 …; experiment: as above
From the text: as §1, §2

[9] = molecular target: T7, GAL4 transcription activation (TA) …; experiment: yeast two-hybrid control (FIG. 6A, No. 1), growth on medium lacking histidine
From the text: as §1, with “6A” for “6B”
To begin the test, the NH_2-terminal domain and COOH-terminal domain of Kv1.4 (RCK4) were subcloned. These truncated cytoplasmic fragments, i.e., the NH_2-terminal domain (a.a. 1–306) and COOH-terminal domain (a.a. 566–651), were expressed individually with Kvβ2 as GAL4 fusion proteins. Using this methodology, if Kvβ2 were to interact with one or both truncated Kv1.4 fragments, the resultant interaction(s) would confer the ability upon the yeast transformants to grow on synthetic medium lacking histidine. Table 2 below defines the conditions of the yeast two-hybrid system in FIG. 6A.

[10] = molecular target: T6, COOH-terminal domain of RCK4 (CRCK4, …); experiment: yeast two-hybrid, growth on medium lacking histidine; similar results with a β-galactosidase assay
From the text: as §1, with “6A” for “6B”
To begin the test, the NH_2-terminal domain and COOH-terminal domain of Kv1.4 (RCK4) were subcloned. These truncated cytoplasmic fragments, i.e., the NH_2-terminal domain (a.a. 1–306) and COOH-terminal domain (a.a. 566–651), were expressed individually with Kvβ2 as GAL4 fusion proteins. […]
Similar results were obtained using a β-galactosidase assay (data not shown). Thus, like Kvβ1, Kvβ2 was determined to interact with the NH_2-terminal domain of the Kv1.4 α-subunit.

Kvβ1 (a.a. 1-401) = molecular target: B1; experiment: cell-based or functional assay
ShBΔ(6-46) = ShBΔ(6-46) (Drosophila, UniProt P08510); experiment: cell-based or functional assay

Binder	binding result [1]	binding result [2]	binding result [3]	binding result [4]	binding result [5]	binding result [6]	binding result [7]	binding result [8]	binding result [9]	binding result [10]	percent of recorded cells with fast inactivation, whole cell voltage clamp recording of transfected COS cells (Kvβ1 (a.a. 1-401))	percent of recorded cells with fast inactivation, whole cell voltage clamp recording of transfected COS cells (ShBΔ(6-46))
B1	no binding	no binding	no binding	no binding	no binding	no binding						
B2		no binding	no binding	no binding			no binding	no binding	no binding	no binding		
B3											22.5 % of cells	22.5 % of cells
B4											61 % of cells	61 % of cells
